Substitutions are numbered along the chain they refer to.
Tests used:
[1] = biological target: membrane TL1A on human PBMCs (human) (UniProt O95150); test: flow cytometry on human PBMCs, antibody staining against CD14 [left plot]
[2] = biological target: T1, human TL1A extracellular domain with N-terminal HIS and FLAG tag (human) (UniProt O95150); test: cell-based or functional assay
T1 sequence: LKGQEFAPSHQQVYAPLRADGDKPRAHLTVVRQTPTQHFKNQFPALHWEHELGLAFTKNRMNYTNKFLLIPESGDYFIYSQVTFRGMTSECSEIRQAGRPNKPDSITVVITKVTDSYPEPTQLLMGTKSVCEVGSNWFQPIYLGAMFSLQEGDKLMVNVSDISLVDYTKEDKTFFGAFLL

[3] = biological target: T2, human TL1A extracellular domain with N-terminal HIS and FLAG tag (human, UniProt O95150 72-251); test: SPR run 1; purified antibody on Protein A; TL1A 10 ug/mL; timepoint 59
T2 construct: whole entry named. ~70 kDa fraction purified by gel filtration
T2 sequence: T1 sequence
Text: (§1) 1.5. Antibody expression and antigen binding as determined by SPR. Using a CM5 sensor chip (GE Healthcare) Protein A (Pierce) was coupled to the chip surface using an amine coupling kit (GE Healthcare). Protein A was coupled on flow cell 1 and 2 (or alternatively 3 and 4) using a BIACORE® T200. […] The amount of supernatant or purified protein (as well as the concentration) injected during the capture stage varied between runs and is specified in the header of the Tables 3-11. At the end of injection of the supernatant or purified antibody the change in response units was measured. This value was reported as Capture Level in Tables 3-11. […] The response units were measured prior to the end of the dissociation phase. […] The sensorgrams were double referenced (flow cell 2 is subtracted from flow cell 1 and a buffer blank). As there were a large number of antibody variants to screen, these were screened across different runs (Tables 3-11). […] A summary of the conditions used in each run is below:
(§2) 2.1. […] In some experiment the antibodies were purified using Protein A chromatography (See 1.4) and purified antibodies were used in BIACORE® (GE Healthcare) experiments.

[4] = biological target: T2, human TL1A extracellular domain with …; test: SPR run 1; purified antibody on Protein A; TL1A 10 ug/mL; timepoint 590
Text: as §1, §2

[5] = biological target: T3, single-site biotinylated human TL1A (human, UniProt O95150 72-251, single-site biotinylated (site not stated)); test: competition ELISA: antibody dilutions pre-incubated with biotinylated human TL1A (1 µg/ml), added to plate-coated DR3/Fc; bound TL1A detected with streptavidin-HRP; blocked partner DR3/Fc [top panel]
T3 construct: construct used for biotinylation not described
T3 sequence: T1 sequence
Description: (§3) 1.8. […] DR3/Fc Chimera (R&D Systems) or DcR3/Fc Chimera (R&D Systems) was coated onto a 96-well plate (Maxisorp, Nunc) at a concentration of 2 μg/ml.

[6] = biological target: T3, single-site biotinylated human TL1A; test: competition ELISA: antibody dilutions pre-incubated with biotinylated human TL1A (1 µg/ml), added to plate-coated DcR3/Fc; bound TL1A detected with streptavidin-HRP; blocked partner DcR3/Fc [bottom panel]
Description: as §3

[7] = biological target: T4, human TL1A extracellular domain with N-terminal HIS and FLAG tag (human, UniProt O95150 72-251); test: cell-based or functional assay
T4 sequence: T1 sequence

[8] = biological target: T4, human TL1A extracellular domain with …; test: SPR Run 8, antibody on Protein A, TL1A 5 ug/mL, timepoint 44
Text: as §1, §2

[9] = biological target: T4, human TL1A extracellular domain with …; test: SPR Run 8, antibody on Protein A, TL1A 5 ug/mL, timepoint 590
Text: as §1, §2

Isotype control (antibody)
number in the upper left quadrant (antibody-positive, CD14-negative cells) [1]: 0.51 | number in the upper right quadrant (antibody-positive, CD14-positive cells) [1]: 0.07

B1: 320-184 (antibody, human IgG1, name in Kabat numbering, V domains shown)
VH: QVQLVQSGAEVKKPGASVKVSCKASGYTFTSYDINWVRQAPGQGLEWMGWLNPNSGNTGYAQKFQGRVTMTADRSTSTAYMELSSLRSEDTAVYYCAREVPETAAFEYWGQGTLVTVSS
VL: QSVLTQPPSVSGAPGQRVTISCTSSSSDIGAGLGVHWYQQLPGTAPKLLIEGYYNRPSGVPDRFSGSKSGTSASLTITGLAPEDEGDYYCQSYDGTLSALFGGGTKLTVLG
notes: human IgG1, lambda
Antibody IC50, TL1A induced caspase potency assay in TF-1 cells [2]: 0.01 µg/mL | Fold improvement over 320-179, TL1A induced caspase potency assay in TF-1 cells [2]: 3 fold | TL1A Binding Level (Early) [3]: 141 RU | TL1A Binding Level (Late) [4]: 118 RU

B2: 320-331 (antibody, human IgG1, name in Kabat numbering, V domains shown)
VH: B1 VH
VL: B1 VL with A81L, Y93W
notes: human IgG1, lambda
IC50 (read off the curve) [5]: ~0.08 µg/mL

B3: 320-190 (antibody, human IgG1, name in Kabat numbering, V domains shown)
VH: B1 VH
VL: B1 VL with A81W
notes: human IgG1, lambda
Antibody IC50, TL1A induced caspase potency assay in TF-1 cells [2]: 0.02 µg/mL | Fold improvement over 320-179, TL1A induced caspase potency assay in TF-1 cells [2]: 2 fold | TL1A Binding Level (Early) [3]: 136 RU | TL1A Binding Level (Late) [4]: 113 RU

B4: 320-186 (antibody, human IgG1, name in Kabat numbering, V domains shown)
VH: B1 VH
VL: B1 VL with A81Q
notes: human IgG1, lambda
Antibody IC50, TL1A induced caspase potency assay in TF-1 cells [2]: 0.03 µg/mL | Fold improvement over 320-179, TL1A induced caspase potency assay in TF-1 cells [2]: 1 fold | TL1A Binding Level (Early) [3]: 136 RU | TL1A Binding Level (Late) [4]: 113 RU

B5: 320-187 (antibody, human IgG1, name in Kabat numbering, V domains shown)
VH: B1 VH
VL: B1 VL with A81D
notes: human IgG1, lambda
Antibody IC50, TL1A induced caspase potency assay in TF-1 cells [2]: 0.02 µg/mL | Fold improvement over 320-179, TL1A induced caspase potency assay in TF-1 cells [2]: 2 fold | TL1A Binding Level (Early) [3]: 134 RU | TL1A Binding Level (Late) [4]: 112 RU

B6: 320-585 (antibody, human IgG1, name in Kabat numbering, V domains shown)
VH: B1 VH
VL: B1 VL with L33Q, A81L, Y93W
notes: human IgG1, lambda
IC50 (read off the curve) [6]: ~2 µg/mL

B7: 320-583 (antibody, human IgG1, name in Kabat numbering, V domains shown)
VH: B1 VH
VL: B1 VL with G32A, A81L, Y93W
notes: human IgG1, lambda
IC50 (read off the curve) [6]: ~1 µg/mL

B8: 320-589 (antibody, human IgG1, name in Kabat numbering, V domains shown)
VH: B1 VH with N57Y
VL: B1 VL with L33S, A81L
notes: full-length human IgG1, lambda
Antibody IC50, TL1A induced caspase potency assay in TF-1 cells [7]: 0.02 µg/mL | Fold improvement over 320-179, TL1A induced caspase potency assay in TF-1 cells [7]: 1 fold | TL1A Binding Level (Early) [8]: 120 RU | TL1A Binding Level (Late) [9]: 109 RU

B9: 320-594 (antibody, human IgG1, name in Kabat numbering, V domains shown)
VH: B1 VH with N57Y
VL: B1 VL with L33Q, A81L, Y93W
notes: as for B8
Antibody IC50, TL1A induced caspase potency assay in TF-1 cells [7]: 0.005 µg/mL | Fold improvement over 320-179, TL1A induced caspase potency assay in TF-1 cells [7]: 12 fold | TL1A Binding Level (Early) [8]: 134 RU | TL1A Binding Level (Late) [9]: 132 RU

B10: 320-590 (antibody, human IgG1, name in Kabat numbering, V domains shown)
VH: B1 VH with N57Y
VL: B1 VL with L33Q, A81L
notes: as for B8
Antibody IC50, TL1A induced caspase potency assay in TF-1 cells [7]: 0.006 µg/mL | Fold improvement over 320-179, TL1A induced caspase potency assay in TF-1 cells [7]: 3 fold | TL1A Binding Level (Early) [8]: 130 RU | TL1A Binding Level (Late) [9]: 121 RU

B11: 320-595 (antibody, human IgG1, name in Kabat numbering, V domains shown)
VH: B1 VH with N57Y
VL: B1 VL with H36L, A81L, Y93W
notes: as for B8
Antibody IC50, TL1A induced caspase potency assay in TF-1 cells [7]: 0.003 µg/mL | Fold improvement over 320-179, TL1A induced caspase potency assay in TF-1 cells [7]: 20 fold | TL1A Binding Level (Early) [8]: 129 RU | TL1A Binding Level (Late) [9]: 128 RU

B12: 320-547 (antibody, human IgG1, name in Kabat numbering, V domains shown)
VH: B1 VH with N57Y
VL: B1 VL with A81L
notes: human IgG1, lambda
IC50 (read off the curve) [5]: ~0.07 µg/mL

B13: 320-191 (antibody, human IgG1, name in Kabat numbering, V domains shown)
VH: B1 VH
VL: B1 VL with A81Y
notes: human IgG1, lambda
Antibody IC50, TL1A induced caspase potency assay in TF-1 cells [2]: 0.02 µg/mL | Fold improvement over 320-179, TL1A induced caspase potency assay in TF-1 cells [2]: 2 fold | TL1A Binding Level (Early) [3]: 140 RU | TL1A Binding Level (Late) [4]: 117 RU

B14: 320-586 (antibody, human IgG1, name in Kabat numbering, V domains shown)
VH: B1 VH
VL: B1 VL with H36L, A81L, Y93W
notes: human IgG1, lambda
IC50 (read off the curve) [6]: ~2 µg/mL

B15: 320-592 (antibody, human IgG1, name in Kabat numbering, V domains shown)
VH: B1 VH with N57Y
VL: B1 VL with G32A, A81L, Y93W
notes: as for B8
Antibody IC50, TL1A induced caspase potency assay in TF-1 cells [7]: 0.003 µg/mL | Fold improvement over 320-179, TL1A induced caspase potency assay in TF-1 cells [7]: 7 fold | TL1A Binding Level (Early) [8]: 128 RU | TL1A Binding Level (Late) [9]: 129 RU

B16: 320-188 (antibody, human IgG1, name in Kabat numbering, V domains shown)
VH: B1 VH
VL: B1 VL with A81H
notes: human IgG1, lambda
Antibody IC50, TL1A induced caspase potency assay in TF-1 cells [2]: 0.01 µg/mL | Fold improvement over 320-179, TL1A induced caspase potency assay in TF-1 cells [2]: 4 fold | TL1A Binding Level (Early) [3]: 136 RU | TL1A Binding Level (Late) [4]: 113 RU

B17: 320-593 (antibody, human IgG1, name in Kabat numbering, V domains shown)
VH: B1 VH with N57Y
VL: B1 VL with L33S, A81L, Y93W
notes: as for B8
Antibody IC50, TL1A induced caspase potency assay in TF-1 cells [7]: 0.004 µg/mL | Fold improvement over 320-179, TL1A induced caspase potency assay in TF-1 cells [7]: 15 fold | TL1A Binding Level (Early) [8]: 126 RU | TL1A Binding Level (Late) [9]: 124 RU

B18: 320-584 (antibody, human IgG1, name in Kabat numbering, V domains shown)
VH: B1 VH
VL: B1 VL with L33S, A81L, Y93W
notes: human IgG1, lambda
IC50 (read off the curve) [6]: ~2 µg/mL

B19: 320-185 (antibody, human IgG1, name in Kabat numbering, V domains shown)
VH: B1 VH
VL: B1 VL with A81S
notes: human IgG1, lambda
Antibody IC50, TL1A induced caspase potency assay in TF-1 cells [2]: 0.02 µg/mL | Fold improvement over 320-179, TL1A induced caspase potency assay in TF-1 cells [2]: 2 fold | TL1A Binding Level (Early) [3]: 137 RU | TL1A Binding Level (Late) [4]: 114 RU

B20: 320-189 (antibody, human IgG1, name in Kabat numbering, V domains shown)
VH: B1 VH
VL: B1 VL with A81K
notes: human IgG1, lambda
Antibody IC50, TL1A induced caspase potency assay in TF-1 cells [2]: 0.11 µg/mL | Fold improvement over 320-179, TL1A induced caspase potency assay in TF-1 cells [2]: 0 fold | TL1A Binding Level (Early) [3]: 130 RU | TL1A Binding Level (Late) [4]: 107 RU

B21: 320-591 (antibody, human IgG1, V domains shown)
VH: B1 VH with N57Y
VL: B1 VL with H36L, A81L
notes: as for B8
Antibody IC50, TL1A induced caspase potency assay in TF-1 cells [7]: 0.002 µg/mL | Fold improvement over 320-179, TL1A induced caspase potency assay in TF-1 cells [7]: 10 fold | TL1A Binding Level (Early) [8]: 132 RU | TL1A Binding Level (Late) [9]: 124 RU

B22: 320-588 (antibody, human IgG1, name in Kabat numbering, V domains shown)
VH: B1 VH with N57Y
VL: B1 VL with G32A, A81L
notes: as for B8
Antibody IC50, TL1A induced caspase potency assay in TF-1 cells [7]: 0.004 µg/mL | Fold improvement over 320-179, TL1A induced caspase potency assay in TF-1 cells [7]: 5 fold | TL1A Binding Level (Early) [8]: 128 RU | TL1A Binding Level (Late) [9]: 123 RU

— patent US20170081400A1 (CEPHALON, published 2017)
